According to paper PMC6435710:

Tests used:
[1] = target: salmon Calcitonin (salmon); test: cross-linking; PICUP (Ru(bpy)3, ammonium persulfate, 2 s light) then tricine SDS-PAGE, silver stain and densitometry; PFOs-enriched SEC fractions (29th and 30th), 80 uM
[2] = target: salmon Calcitonin (salmon); test: cross-linking; PICUP (Ru(bpy)3, ammonium persulfate, 2 s light) then tricine SDS-PAGE, silver stain and densitometry; native unfractioned Monomer-enriched sample (powder dissolved in desalted water, 80 uM)
[3] = target: salmon Calcitonin (salmon); test: SEC; Sephadex G50 column at 4 °C, 5 mM phosphate buffer pH 7.4; spontaneously aggregated native sCT (2 mg incubated overnight at room temperature); calibrated with BSA, cytochrome c, aprotinin, somatostatin; absorbance at 280 nm

PFOs% (trimers + tetramers + pentamers + hexamers percentage of the gel lane) [1]: 54%
PFOs% (trimers + tetramers + pentamers + hexamers percentage of the gel lane) [2]: 16.5%
stoichiometry N [3]: 2
Substance: salmon Calcitonin (peptide)
